{"source": "patent US20050014242", "key": {"[1]": {"test_system": "PFEK1-protease MH2-6×HIS (purified zymogen, not digested with EK)", "sequence (chain, as listed by the source)": "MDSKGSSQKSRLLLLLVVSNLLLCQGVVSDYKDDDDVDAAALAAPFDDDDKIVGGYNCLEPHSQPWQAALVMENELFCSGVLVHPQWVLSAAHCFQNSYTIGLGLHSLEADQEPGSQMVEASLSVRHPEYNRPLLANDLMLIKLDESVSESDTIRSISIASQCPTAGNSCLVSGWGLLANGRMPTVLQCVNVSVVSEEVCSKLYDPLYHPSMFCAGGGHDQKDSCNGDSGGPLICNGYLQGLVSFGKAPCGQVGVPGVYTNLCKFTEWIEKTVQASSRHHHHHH"}, "[2]": {"test_system": "PFEK2-prostasin-6×HIS (purified zymogen, not digested with EK)"}, "[3]": {"test_system": "PFEK2-protease F-6×HIS (purified zymogen, not digested with EK)", "sequence (chain, as listed by the source)": "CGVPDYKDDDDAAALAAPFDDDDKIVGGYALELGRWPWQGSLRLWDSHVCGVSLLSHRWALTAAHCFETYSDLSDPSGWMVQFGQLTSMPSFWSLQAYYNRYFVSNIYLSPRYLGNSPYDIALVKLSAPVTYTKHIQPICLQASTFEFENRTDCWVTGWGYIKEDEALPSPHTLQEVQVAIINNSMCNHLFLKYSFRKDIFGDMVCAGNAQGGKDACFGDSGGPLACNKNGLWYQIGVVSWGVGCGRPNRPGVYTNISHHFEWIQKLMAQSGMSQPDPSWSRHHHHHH"}, "[4]": {"test_system": "PFEK1-protease O-6×HIS (purified zymogen, not digested with EK)"}, "[5]": {"test_system": "PFEK1-neuropsin-6×HIS (purified zymogen, not digested with EK)"}, "[6]": {"test_system": "CFEK2-prostasin-6×HIS (purified zymogen, not digested with EK)"}}}
{"substance": "enterokinase", "values": [{"measurement": "cleavage of the zymogen (SDS-PAGE and anti-FLAG Western blot)", "setting": "[1]", "result": "quantitative cleavage of the expressed and purified zymogen to generate the processed and activated protease"}, {"measurement": "cleavage of the zymogen (SDS-PAGE and anti-FLAG Western blot)", "setting": "[2]", "result": "quantitative cleavage of the expressed and purified zymogen to generate the processed and activated protease"}, {"measurement": "cleavage of the zymogen (SDS-PAGE and anti-FLAG Western blot)", "setting": "[3]", "result": "quantitative cleavage of the expressed and purified zymogen to generate the processed and activated protease"}, {"measurement": "cleavage of the zymogen (SDS-PAGE and anti-FLAG Western blot)", "setting": "[4]", "result": "quantitative cleavage of the expressed and purified zymogen to generate the processed and activated protease"}, {"measurement": "cleavage of the zymogen (SDS-PAGE and anti-FLAG Western blot)", "setting": "[5]", "result": "quantitative cleavage of the expressed and purified zymogen to generate the processed and activated protease"}, {"measurement": "cleavage of the zymogen (SDS-PAGE and anti-FLAG Western blot)", "setting": "[6]", "result": "quantitative cleavage of the expressed and purified zymogen to generate the processed and activated protease"}]}
